Assay: soluble on expression in E. coli; label from the status in PepcDB or PDB records

Sequence | soluble on expression in E. coli
MGSDKIHHHHHHMASLTFLGAAQEVTGSCYLLETLDGVKVLLECGMRQGRREADNGNRAPFPFDPASIDAVVISHAHLDHSGLLPRLAAEGFKGPIFATEATCELLELMLLDSAHIQEKDAEWENRWRNRIGKPSIKPLYTQADTERALKLRRPISLGSTVAVARGVRVTFHNAGHILGSSIVEVQFHDQVQPRRLVFSGDLGNTCSPLMRAPSPLSRADVVMLESTYGDRDHRDSNDTLEELAAILDQAHRDGGNVLIPSFAVGRTQDLLYYLGRFYQEGRLPQQAVFLDSPMAARANGIYLRHSNEFDDRDREYIRGTGTTRLEEWLPVLRVTRSADESMAINRIKSGAVIIAGSGMCTGGRIVHHFKHNLWRPECHVVFPGFQARGTLGRNIVDGASAVRVFHQRIAVKAQIHTLGGFSAHAGQSQLLDWVGHFAHRPALYLIHGEREKMEALQSAIRERLDWDAEIPEPGERIEI | not soluble
MDDSTLRRKYPHHEWHAVNEGDSGAFVYQLTGGPEPQPELYAKIAPRAPENSAFDLSGEADRLEWLHRHGIPVPRVVERGADDTAAWLVTEAVPGVAAAEEWPEHQRFAVVEAMAELARALHELPVEDCPFDRRLDAAVAEARRNVAEGLVDLDDLQEERAGWTGDQLLAELDRTRPEKEDLVVCHGDLCPNNVLLDPGTCRVTGVIDVGRLGVADRHADIALAARELEIDEDPWFGPAYAERFLERYGAHRVDKEKLAFYQLLDEFF | not soluble
MERGRSDMEMINNMANCLILLSKAHQNDTKSRVFACKTCNKEFPSFQALGGHRASHRRSAALEGHAPPSPKRVKPVKHECPICGAEFAVGQALGGHMRKHRGGSGGGGGRSLAPATAPVTMKKSGGGNGKRVLCLDLNLTPLENEDLKLELGRFIF | soluble
MAHHHHHHNEKDIGKLKKTFEAFDHNGDGVLTISEIFQCLKLNDNELDTELYFLLKQLDTDGNGLIDYTEFLAACLDHSIFQQDVICRNAFNVFDLDGDGVITKEELFNILSFSAVQVSFSKEIIENLIKEVDANNDGFIDYDEFYKMMTGAK | soluble
MVVVTGREPDSRRQDGAMSSSDAEDDFLEPATPTATQAGHALPLLPQEFPEVVPLNIGGAHFTTRLSTLRCYEDTMLAAMFSGRHYIPTDSEGRYFIDRDGTHFGDVLNFLRSGDLPPRERVRAVYKEAQYYAIGPLLEQLENMQPLKGEKVRQAFLGLMPYYKDHLERIVEIARLRAVQRKARFAKLKVCVFKEEMPITPYECPLLNSLRFERSESDGQLFEHHCEVDVSFGPWEAVADVYDLLHCLVTDLSAQGLTVDHQCIGVCDKHLVNHYYCKRPIYEFKITW | soluble
MSLSQASSTDTPFVIAGRTYGSRLLVGTGKYKDLDETRRAIEASGAEIVTVAVRRTNIGQNPDEPNLLDVIPPDRYTILPNTAGCYDAVEAVRTCRLARELLDGHNLVKLEVLADQKTLFPNVVETLKAAEQLVKDGFDVMVYTSDDPIIARQLAEIGCIAVMPLAGLIGSGLGICNPYNLRIILEEAKVPVLVDAGVGTASDAAIAMELGCEAVLMNTAIAHAKDPVMMAEAMKHAIVAGRLAYLAGRMPRKLYASASSPLDGLIDEGGSHHHHHH | soluble
MSTVVDRLQRMTLNLTSPDGNLCATVDAERRARFHLRDETRFERYDAPTLSTQVKALLTTMNSGRELGIKRAYAADGREPAAVNGTHWDAAHRRFEAALATLELEGYSEDGLLLLQSGFDLSGYRVTIDRDDLPRTSPEQFLRELSGAYRDLLAHRRQRRAELLREHLGT | not soluble
MGSDKIHHHHHHMPEPRRSTIDAGEVERFSALAAEWWNPNGKFRPLHKFNPVRLSYIRDQIAARFGRDPRAARPFEGLRILDIGCGGGLLCEPMARLGAEVVGADASETNIEVAKLHAAEGNVIVDYRATTAEDLADAGETFDVILNMEVVEHVADIDLFVAKCGQMVRPGGIMFVATINRTLKALGLAIIGAEYVLRWLPRGTHQFGKLVRPEELEKALGGASLTIIDRTGVTYNPLADRWARSKDMDVNYMVLAEKGSV | not soluble
MPPRRDLKKILIIGSGPITIGQAAEFDYSGTQAVKALRGAGYRVVLVNSNPATIMTDPELAERTYIEPLDLEHLEGILAREAPDALLPTLGGQTGLNLAMALHEEGILQKYGVELIGAKAEAIRKGEDREAFQEAMQRIGLEVPRGQLVGSVEEGLHFAREVGFPVVVRPSFTLGGTGGGIAHDEAELVEVLSRGLTLSPVHTALVEESVLGWKEFELEVMRDHADTVVIITSIENVDPMGVHTGDSITVAPAQTLSDVEYQRMRDAAKAIIREIGVETGGSNIQFAVDPKTGRQVVIEMNPRVSRSSALASKATGFPIAKIAALLAVGYRLDELPNDITRKTPASFEPTIDYVVVKIPRFAFEKFRPLRNTLGELKDELTTQMKSVGEVMAIGRTFKEALMKALRGLERDVRALAGVRTEELEKKLYPNPDRVYAVMELLRRGMPVEELYQATRIDPWFLHQMKEVVEAEEWLKTHPPKDREDWRFYKGLGLTDRRIGELVGKGEKEVRAERKALGVVPVYKTVDTCAAEFEAYTPYHYSTYELEDEVWPSQKPKVVILGSGPIRIGQGVEFDYATVHAVWALKEAGYETIMVNSNPETVSTDYDTADRLYFEPLTLEDVLNIVEHEKPIGVIATLGGQTPLKLAKGLEEAGVRLLGTPFSAIHQAEDREAFHALCQRLGIPQPEGRVAQSPEEALRLAPEVGFPLLVRPSYVLGGRAMQVVRDEGELKRYLEEVYAPLEERPSILLDRFLEGAVELDVDALSDGQEVMVAGIMEHVERAGVHSGDSATLLPPVHVPEEALKKVRDYTRRLALALGVRGLLNVQYAVVGEEVYVLEANPRASRTVPFVSKAIGVPLAKLAALIAVGKTLKELGVRDLDPVPPYYAAKEVVIPWIKFPGVIPELGPEMRSTGESMGIDQDPYLAYYKAELGAGQRLPLSGRVRFIGEGLEDLKALYQEAGFALTEGEDYDLLISLVPDPELRRAVERGLPFITTREGAWWSLKAILRARESGLRVQSLQDWHQKAPRG | soluble
MAVTKELLQMDLYALLGIEEKAADKEVKKAYRQKALSCHPDKNPDNPRAAELFHQLSQALEVLTDAAARAAYDKVRKAKKQAAERTQKLDEKRKKVKLDLEARERQAQAQESEEEEESRSTRTLEQEIERLREEGSRQLEEQQRLIREQIRQERDQRLRGKAENTEGQGTPKLKLKWKCKKEDESKGGYSKDVLLRLLQKYGEVLNLVLSSKKPGTAVVEFATVKAAELAVQNEVGLVDNPLKISWLEGQPQDAVGRSHSGLSKGSVLSERDYESLVMMRMRQAAERQQLIARMQQEDQEGPPT | soluble
MSLNYRHAFHAGNFADLHKHAILLAMLSALQEKSPALAVIDTHAGAGGYDLAGEMARRSGEAQAGIFRLKAAADAPAVFQPLLNAITQMNGGKDGDLYPGSPRLMARALRGADRYVGCELRDDDADLLRKTLAPCANARALQADGFDTAVKDAGKGGRAFIVIDPPFERPDDYDRIVATTRAVLARAPDAALAIWLPIKDLETFDAFLRAMETVTSDLLVAELRLRPLTDPMKMNGCAMVMIGAPPSVEDAAVAAGDWIATRLGEPGGRSRVWRTEGHHHHHH | soluble
MAKSTVRYVCSACGAVSLKYQGRCFECQSWGTLVETHLEEPDAKVRKKRPAGSMPEVQNLDDDAPSGFHRTLTGIGELDRVLGGGLMEASAILVGGEPGIGKSTLMLQLVPRLAGKKVLYVAGEESPNQIRERARRLSIKAPNLRLVSEVALERILDAIANEQPEMVIVDSIQTVYSSDYQSSAGTITQIRECAASLIRAAKEQNFILLIIGHITKEGSLAGPKALEHMVDTVVQFEGENYQRYRIIRSVKNRFGPTNEIGVFKMGEEGLTEVSNPSEFFISDRRTDVPGTAVLAGIEGSRALMVEVQALVSRTGYSMPQRISTGFDLKRIAIILAVLEKRLQFQTAGQDVFVKIAGGLKLVEPAADLAIAAAVASGLQDKPCNPTACCCGEIGLSGELRAISDGERRIREAVHLGFTSIVLPESNTRELKPSLKKLPIRIAGCRTLHEALEAMGV | not soluble
MPNTIRLHRVLSAPPERVYRAFLDPLALAKWLPPEGFVCKVLEHDARVGGAYKMEFLAFASGQKHAFGGRYLELVPGERIRYTDRFDDAGLPGDMITTITLAPLSCGADLSIVQEGIPDAIPPENCYLGWQQSLKQLAALVEPDMPGLEHHHHHH | soluble
MSLDEIVGIGFKRADAIARNMGVHPHSKYRIHSGIKYMLNTFQGEGHTYAPGVKLIQRAEELLRVEEGQVEGAIQELALNQEIQLERIDDEIIVYSMPYYYAESNVCKKLISLAQVELDPIEMDIDEELQKIEQAEEMTLAKQQKEAIKEAIENGISVITGGPGTGKTTTINSLIKVFEKLELKMLLAAPTGRASKRMTEATGKESKTIHRLLELGFGDDREGMLFQRNEDNPLDCHVIIIDEVSMVDIILMNSLMKSIARGTRVVLVGDVDQLPSVGAGNVLRDIIDSKVVKTIRLTEIFRQAQESMIVVNAHRINQGLYPQLNEKQKDFYFMKRNAKEDVLATVVELVRDRLPKHYQFDALRDIQVLTPMKKGETGTLNLNKELQAALNPPNVSKAEKDLKEKIFREGDKVMQIKNNYTLKWRCLDPMAEEQKGEGVFNGDIGYVQSIDTEAEELVILFDDQKQVNYSFTQLDELELAYSVTIHKSQGSEFPVVVIPITWGPPMLLTRNLLYTAVTRARSLVVLVGVESYLKKMVDNNKIIERYSGLGRRLGKYFEEGHHHHHH | not soluble
MAGDPNSMMIARTLSIFIGTLLLATCSIPTRLNIPTIAITDHPKYKLLLILIDGLRADALEHGQAPQLARLASDGVHARWMTPSYPALTLPNAYTLITGLRPDHHGIVHNTMEDPLLGAFESERQEAISNGRWWGGEPIWVSAEHAGIRSATFLWPGSEASIAGTRPSRWYAYNKHISADTQITQALRWLNERGPDAPRLVILRFEQVNTAGDNFGPDSPQYAAAVNMIDSAIGRLIDSLRQHGKLTDTDVIVVSDQGIAPIPGDHAVPLERIVQLSDVHVVSDGQVLGITPLPGHESKVEAMVLGAHATYDCWRKQALPTHWHYGTHPRIPNIVCQMHEGWNALSAAQITKRNPLQMGGSSGFDPMLPSMRAVFLANGPSFMPNLLLNPINNVDIYPLLARLLGIAMAPNDGNPRALLQALRTSNTANGYTYSKRNALHLEHHHHHH | not soluble
MINVEQVFALDIGTRLVMGLIMEKAPGGYHIIARAQTEHRQRAMYDGQIHDIEEVAQAVQRVKEELEEKIKGKLHYVSVAAAGRALKTAVATAQKSELIPMIWEREDIFALEMEAVQQALREIQAEDEIIPYHCVGYSTIESLLEGQNLSSLSGQRGKEAQVKVIATFLPRTVIDGLTRVISKVGLEMRELTLEPIAAGRAAIPPDMRRMNLALVDVGAGTSDIALTKSGSFFAYGMVPMAGDEITERICQHFLVDFQTGEKIKRSLNTKTKVTFTDFLGMKTTVNKEEVLEQIQPVVLELAQKLADEILRLNQGNPHAIILIGGGSQTPLLAEVLSDLLELPRNRVGIQVRERIQGVSGEKSLKGPDAITPIGIGISTIEGEGLQYFSVHVNDLTVQIFELQLATVSDALLAAGITPRLLVGRPGSALTVELNGDIKVSKGQFSKPAQFFLNGEEVKLDHELKPGDKIQFIPAQDGENAQATFADLVPAIPEKKIKVNGESVVFTAQIFCNGRPVTRDGDVPDGAKITVFQNQTLKDLLHFLNDKQYSLSEIRYKINGEERVIPIHKEFYINQQKVALERMIKDGDDLVILVKEVYIKDLQLKPTPMVFYVNGQEVEYPPQIFRILSRGRVLSDQEKVVDGMELSVEGYDTMPLLSELLPYVNIPQDVPANARLSLKRNNQEAEFTTPLIPGDRIEIHWEQVASALLEHHHHHH | soluble
MSLSKPLYVFDLDDTLIDGDCAMIWNAFLAEKGIATERNFVEEDRRRMALYAQGKMDMAEYIAFAMQPLAQVPSTTVQDWVEECVSRWIVPKQFAQARELIAQLKQQGNTCLIISASVSFLVKTVAQRFGIEHALGIDLVSQNGCYSGNIEGVASYREGKVLRLQQWLAEQNETYHDVHFYTDSINDLPLCQHADFAYVVNPCPRLKAQAEQHGWPILSWAVEGHHHHHH | soluble
